Results on four proteins are retold here after patent US20040142445.

In data set [1] the target is recombinant aggrecan G1G2, P16112.
The target of data set [2] is natural type aggrecan (mfd. by Seikagaku Kogyo).

Chain of recombinant aggrecan G1G2, P16112 (P16112 20-675): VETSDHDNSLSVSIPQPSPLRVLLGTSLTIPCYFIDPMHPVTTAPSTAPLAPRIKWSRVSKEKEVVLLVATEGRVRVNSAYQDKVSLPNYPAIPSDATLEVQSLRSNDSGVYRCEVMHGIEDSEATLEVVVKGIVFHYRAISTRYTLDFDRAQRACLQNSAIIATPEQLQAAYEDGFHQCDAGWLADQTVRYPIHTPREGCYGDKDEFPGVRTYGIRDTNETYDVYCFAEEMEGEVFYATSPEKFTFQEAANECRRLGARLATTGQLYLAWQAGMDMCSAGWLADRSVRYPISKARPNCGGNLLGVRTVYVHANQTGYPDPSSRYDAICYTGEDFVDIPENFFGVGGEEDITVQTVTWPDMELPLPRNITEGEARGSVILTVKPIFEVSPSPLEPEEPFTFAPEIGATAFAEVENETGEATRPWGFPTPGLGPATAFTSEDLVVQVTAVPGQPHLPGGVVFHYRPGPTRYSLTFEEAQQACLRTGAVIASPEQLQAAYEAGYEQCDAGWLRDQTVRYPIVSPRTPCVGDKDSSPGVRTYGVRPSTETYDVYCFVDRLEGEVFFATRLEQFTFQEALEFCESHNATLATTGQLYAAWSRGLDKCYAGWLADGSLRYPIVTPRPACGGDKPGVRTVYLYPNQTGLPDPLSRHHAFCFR

B1: MDTS6TSP1 protein (protein)
chain: FVSIPRYVETLVVADESMVKFHGADLEHYLLTLLATAARLYRHPSILNPINIVVVKVLLLRDRDSGPKVTGNAALTLRNFCAWQKKLNKVSDKHPEYWDTAILFTRQDLCGATTCDTLGMADVGTMCDPKRSCSVIEDDGLPSAFTTAHELGHVFNMPHDNVKVCEEVFGKLRANHMMSPTLIQIDRANPWSACSAAIITDFLDSGHGDCLLDQPSKPISLPEDLPGASYTLSQQCELAFGVGSKPCPYMQYCTKLWCTGKAKGQMVCQTRHFPWADGTSCGEGKLCLKGACVERHNLNKHRVDGSWAKWDPYGPCSRTCGGGVQLARRQCTNPTPANGGKYCEGVRVKYRSCNLEPCPSSASGKSFREEQ
For B1, the “recombinant aggrecan G1G2 degrading activity (western blot, anti-His detection)” value in data set [1] is on record as “degraded fragment of the recombinant aggrecan, which was not found in the control in which only the expression plasmid was introduced, was detected”.

B2: MDTS6Dis (protein)
chain: FVSIPRYVETLVVADESMVKFHGADLEHYLLTLLATAARLYRHPSILNPINIVVVKVLLLRDRDSGPKVTGNAALTLRNFCAWQKKLNKVSDKHPEYWDTAILFTRQDLCGATTCDTLGMADVGTMCDPKRSCSVIEDDGLPSAFTTAHELGHVFNMPHDNVKVCEEVFGKLRANHMMSPTLIQIDRANPWSACSAAIITDFLDSGHGDCLLDQPSKPISLPEDLPGASYTLSQQCELAFGVGSKPCPYMQYCTKLWCTGKAKGQMVCQTRHFPWADGTSCGEGKLCLKGACVERHNLNKHRVDGSGSAAADYKDDDDK
With B2, the “aggrecanase activity (method of Example 7-3, neoepitope western blot)” value (shortened to “aggrecanase activity”) in data set [1] is “the aggrecanase activity was not detected in the culture supernatants in which MDTS6Pro and MDTS6Dis were expressed”.

B3: MDTS6Pro (protein)
chain: FVSIPRYVETLVVADESMVKFHGADLEHYLLTLLATAARLYRHPSILNPINIVVVKVLLLRDRDSGPKVTGNAALTLRNFCAWQKKLNKVSDKHPEYWDTAILFTRQDLCGATTCDTLGMADVGTMCDPKRSCSVIEDDGLPSAFTTAHELGHVFNMPHDNVKVCEEVFGKLRANHMMSPTLIQIDRANPWSACSAAIITDFLDSGHGDCLLDQPSKPISLPEDLPGASYTLSQQGSAAADYKDDDDK
As to B3, the “aggrecanase activity” value in data set [1] was “the aggrecanase activity was not detected in the culture supernatants in which MDTS6Pro and MDTS6Dis were expressed”.

B4: MDTS6Cys (protein)
chain: FVSIPRYVETLVVADESMVKFHGADLEHYLLTLLATAARLYRHPSILNPINIVVVKVLLLRDRDSGPKVTGNAALTLRNFCAWQKKLNKVSDKHPEYWDTAILFTRQDLCGATTCDTLGMADVGTMCDPKRSCSVIEDDGLPSAFTTAHELGHVFNMPHDNVKVCEEVFGKLRANHMMSPTLIQIDRANPWSACSAAIITDFLDSGHGDCLLDQPSKPISLPEDLPGASYTLSQQCELAFGVGSKPCPYMQYCTKLWCTGKAKGQMVCQTRHFPWADGTSCGEGKLCLKGACVERHNLNKHRVDGSWAKWDPYGPCSRTCGGGVQLARRQCTNPTPANGGKYCEGVRVKYRSCNLEPCPSSASGKSFREEQCEAFNGYNHSTNRLTLAVAWVPKYSGVSPRDKCKLICRANGTGYFYVLAPKVVDGTLCSPDSTSVCVQGKCIKAGCDGNLGSKKRFDKCGVCGGDNKSCKKVTGGSAAADYKDDDDK
In the case of B4, in data set [2], the “cleavage at the aggrecanase site (western blot)” value was “the recombinant aggrecan G1G2 and the natural type aggrecan are cleaved off at the site between Glu373-Ala374 ... by MDTS6Cys”; the “degradation of natural type aggrecan (neoepitope western blot)” value was “a band of 80 to 90 KDa was detected in the case of MDTS6Cys in addition to a band of about 150 KDa”. In data set [1], the “aggrecanase activity” value is listed as “the aggrecanase activity was detected in the culture supernatant in which MDTS6Cys was expressed”; the “cleavage at the aggrecanase site (western blot)” value is “the recombinant aggrecan G1G2 and the natural type aggrecan are cleaved off at the site between Glu373-Ala374 ... by MDTS6Cys”.
